From PMC7081346, “Identification and characterization of N9-methyltransferase involved in converting caffeine into non-stimulatory theacrine in tea” (Nature Communications, 2020)

Key:
[1] = molecular target: T1, CkTbS (Camellia sinensis, UniProt A0A6C0WX00, T241I); test: in vitro methylation assay, HPLC; format: biochemical; conditions: SAM as methyl donor
T1 construct: gene TBS; full-length, recombinant from E. coli BL21(DE3); N-terminal His6-SUMO tag cleaved with ULP1

[2] = molecular target: T2, CkTbS (Camellia sinensis, UniProt A0A6C0WX00, S270C); test: in vitro methylation assay, HPLC; format: biochemical; conditions: SAM as methyl donor; printed as C270S, but CkTbS residue 270 is Ser
T2 construct: gene TBS; full-length, recombinant from E. coli BL21(DE3); N-terminal His6-SUMO tag cleaved with ULP1

[3] = molecular target: T3, CkTbS (Camellia sinensis, UniProt A0A6C0WX00, H226R/T241I/S270C); test: in vitro methylation assay, HPLC; format: biochemical; conditions: SAM as methyl donor; triple mutant, composition from the three variable residues
T3 construct: gene TBS; full-length, recombinant from E. coli BL21(DE3); N-terminal His6-SUMO tag cleaved with ULP1

[4] = molecular target: the molecule itself; test: crystal structure; CkTcS (eight N-terminal residues truncated) mixed with 2 mM SAH and 5 mM 1,3,7-trimethyluric acid; hanging drop, 4 °C, 0.1 M HEPES (pH 7.5), 1 M sodium citrate; 3.14 Å; homodimer in the crystal lattice
[5] = substrate: C[S+](CC[C@H](N)C(=O)O)C[C@H]1O[C@@H](n2cnc3c(N)ncnc32)[C@H](O)[C@@H]1O; test: purified protein; conditions: 50 μM 1,3,7-trimethyluric acid, 200 μM MgCl2, 100 mM Tris-HCl pH 7.0, 27 °C
[6] = substrate: Cn1c(=O)c2c([nH]c(=O)n2C)n(C)c1=O; test: theacrine formation by HPLC-MS; format: biochemical, Camellia sinensis; conditions: 1.5 mM SAM, 200 μM MgCl2, 100 mM Tris-HCl pH 7.0, 27 °C
[7] = substrate: Cn1cnc2[nH]c(=O)[nH]c(=O)c21; test: theobromine formation by HPLC-MS; format: biochemical, Camellia sinensis; conditions: 1.5 mM SAM, 200 μM MgCl2, 100 mM Tris-HCl pH 7.0, 27 °C

T1 sequence (A0A6C0WX00 whole entry T241I): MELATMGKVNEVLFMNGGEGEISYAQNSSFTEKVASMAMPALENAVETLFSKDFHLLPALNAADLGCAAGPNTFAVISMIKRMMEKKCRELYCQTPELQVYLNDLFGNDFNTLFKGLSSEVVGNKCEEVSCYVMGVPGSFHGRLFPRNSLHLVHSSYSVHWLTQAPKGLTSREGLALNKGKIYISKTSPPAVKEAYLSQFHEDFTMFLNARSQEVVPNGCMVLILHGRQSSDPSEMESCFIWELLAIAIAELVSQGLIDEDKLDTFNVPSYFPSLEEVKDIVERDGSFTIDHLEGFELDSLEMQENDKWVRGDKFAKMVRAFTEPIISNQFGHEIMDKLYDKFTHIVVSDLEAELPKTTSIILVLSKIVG
T3 sequence (A0A6C0WX00 whole entry H226R/T241I/S270C): as the sequence (A0A6C0WX00 whole entry T241I) above, with H226R, S270C counted along it
T2 sequence (A0A6C0WX00 whole entry S270C): as the sequence (A0A6C0WX00 whole entry T241I) above, with I241T, S270C counted along it

`Cn1c(=O)c2c([nH]c(=O)n2C)n(C)c1=O` [compound 5, 1,3,7-trimethyluric acid] was tested, and the “in vitro methylation assay, HPLC” value [1] was “Single mutation of T241I or C270S on CkTbS led to a moderate increase”, the “in vitro methylation assay, HPLC” value [2] was “Single mutation of T241I or C270S on CkTbS led to a moderate increase” and the “in vitro methylation assay, HPLC” value [3] was “the double and triple mutations further increased the N-methyltransferase activity”.

B1: theacrine synthase CkTcS (N9-methyltransferase), N-terminal eight residues truncated (enzyme, Camellia assamica var. kucha (Kucha), UniProt A0A6C0WW36 9-370, looked up)
chain: VKEVLFMNTGEGESSYVQNSSFTEKVASMAMPALENAVETLFSKDFHLFQAINAADLGCATGPNTFAVISTIKRMMEKKCRELNCQTLELQVYMNDLFGNDFNTLFKGLSSKVIGNKCEEVSCYVMGVPGSFHGRLFPRNSLHLVHSSYSVHWLTQAPKGLTSREGLALNKGRIYISKTSPPVVREAYLSQFHEDFTMFLNARSQEVVPNGCMVLILRGRQSSDPSDMQSCFIWELLAIAIAELVSQGLIDEDKLDTFNIPCYFPSLEEVKDIVERDGSFTIDHMEGFELDSLQMQENDKWVRGEKFAKIVRAFTEPIISNQFGHEIMDKLYDKFTHIVVSDLEAKLPKTTSIILVLSKIVG
notes: CkTcS, theacrine synthase (N9-methyltransferase) of Camellia assamica var. kucha (Kucha); for crystallization eight residues on the N-terminal were truncated; source: E. coli BL21(DE3), purified (Nickel column, ion-exchange, size-exclusion); not shown: His6, N-terminal, cleaved; SUMO, N-terminal, cleaved
In the case of B1, the “stoichiometry N” value [4] is reported as 2.

B2: CkTcS (Camellia sinensis var. assamica) (protein)
chain: MELATRGKVKEVLFMNTGEGESSYVQNSSFTEKVASMAMPALENAVETLFSKDFHLFQAINAADLGCATGPNTFAVISTIKRMMEKKCRELNCQTLELQVYMNDLFGNDFNTLFKGLSSKVIGNKCEEVSCYVMGVPGSFHGRLFPRNSLHLVHSSYSVHWLTQAPKGLTSREGLALNKGRIYISKTSPPVVREAYLSQFHEDFTMFLNARSQEVVPNGCMVLILRGRQSSDPSDMQSCFIWELLAIAIAELVSQGLIDEDKLDTFNIPCYFPSLEEVKDIVERDGSFTIDHMEGFELDSLQMQENDKWVRGEKFAKIVRAFTEPIISNQFGHEIMDKLYDKFTHIVVSDLEAKLPKTTSIILVLSKIVG
notes: full-length, recombinant from E. coli BL21(DE3); N-terminal His6-SUMO tag cleaved with ULP1; homodimer
For B2, the Km [5] was 109.50 µM, the Km [6] was 4.68 ± 0.72 µM and the kcat [6] was 11.42 ± 0.37 ×10^-3 s^-1. For the same molecule, the Km [7] was 226.20 ± 33.95 µM and the kcat [7] was 6.07 ± 0.21 ×10^-3 s^-1.

B3: CkCS (Camellia sinensis var. assamica) (protein)
chain: MELATREKVNEVLFMNRGEGESSYAQNSSFTQQVASMAQPALENAVETLFSKDFHLQALNAADLGCAAGPNTFAVISTIKRMMEKKCRELNCQTLELQVYLNDLFGNDFNTLFKGLSSEVIGNKCEEVPCYVMGVPGSFHGRLFPRNSLHLVYSSYSVHWLTQAPKGLTSREGLALNKGKIYISKTSPPVVREAYLSQFHEDFTMFLNYRSQEMVPNGCMVLILRGRQCFDPSDMQSCFTWELLALAIAELVSQGLIDEDKLDTFNIPSYFASLEEVKDIVERDGSFTIDHIEGFDLDSVEMQENDKWVRGEKFTKVVRAFSEPIISSQFGHEIMDKLYDKFTHIVVSDLEAKLPKTTSIILVLSKIVG
notes: full-length, recombinant from E. coli BL21(DE3); N-terminal His6-SUMO tag cleaved with ULP1
For B3, the Km [6] was 71.49 ± 15.60 µM and the kcat [6] was 0.12 ± 0.01 ×10^-3 s^-1.

B4: CkTbS (Camellia sinensis var. assamica) (protein)
chain: MELATMGKVNEVLFMNGGEGEISYAQNSSFTEKVASMAMPALENAVETLFSKDFHLLPALNAADLGCAAGPNTFAVISMIKRMMEKKCRELYCQTPELQVYLNDLFGNDFNTLFKGLSSEVVGNKCEEVSCYVMGVPGSFHGRLFPRNSLHLVHSSYSVHWLTQAPKGLTSREGLALNKGKIYISKTSPPAVKEAYLSQFHEDFTMFLNARSQEVVPNGCMVLILHGRQSSDPSEMESCFTWELLAIAIAELVSQGLIDEDKLDTFNVPSYFPSLEEVKDIVERDGSFTIDHLEGFELDSLEMQENDKWVRGDKFAKMVRAFTEPIISNQFGHEIMDKLYDKFTHIVVSDLEAELPKTTSIILVLSKIVG
notes: as for B3
B4 was tested, and the Km [6] was 162.20 ± 27.80 µM and the kcat [6] was 0.18 ± 0.01 ×10^-3 s^-1.
